Reference: US20250066455A1 (published 2025)

Molecular target: SARS-CoV-2 WT Spike (SARS-CoV-2, UniProt P0DTC2 14-1208)
Assay: BLI

Row | Binder | Kd [nM]
1 | REGN10933 (antibody, V domains shown) VH: QVQLVESGGGLVKPGGSLRLSCAASGFTFSDYYMSWIRQAPGKGLEWVSYITYSGSTIYYADSVKGRFTISRDNAKSSLYLQMNSLRAEDTAVYYCARDRGTTMVPFDYWGQGTLVTVSS VL: DIQMTQSPSSLSASVGDRVTITCQASQDITNYLNWYQQKPGKAPKLLIYAASNLETGVPSRFSGSGSGTDFTFTISGLQPEDIATYYCQQYDNLPLTFGGGTKVEIKR | < 0.01
2 | REGN10987 (antibody, V domains shown) VH: QVQLVESGGGVVQPGRSLRLSCAASGFTFSNYAMYWVRQAPGKGLEWVAVISYDGSNKYYADSVKGRFTISRDNSKNTLYLQMNSLRTEDTAVYYCASGSDYGDYLLVYWGQGTLVTVSS VL: QSALTQPASVSGSPGQSITISCTGTSSDVGGYNYVSWYQQHPGKAPKLMIYDVSKRPSGVSNRFSGSKSGNTASLTISGLQSEDEADYYCNSLTSISTWVFGGGTKLTVLR | < 0.01
